The target in experiment [1] is T1, DNA-PK (Homo sapiens, UniProt P78527).
T1 construct: DNA-PK was purified from HeLa cells; endogenous in cells; host or cells: HeLa S3 cells; the endogenous enzyme was purified in house by chromatography
Description: Phosphorylation of mouse p53 by DNA-PK as a function of DNA concentration. It is filed as biochemical. The following applies: calf thymus DNA 100 μg/ml. As to the method: To determine whether DNA binding affected p53 phosphorylation by DNA-PK, the rate of phosphorylation of recombinant wild-type mouse p53 was measured as a function of DNA concentration. At low calf thymus DNA concentrations (0 to approximately 10 μg/ml), the initial rate of p53 phosphorylation increased sharply but then decreased as the DNA concentration was further increased. At DNA concentrations of 100 μg/ml, the rate of p53 phosphorylation fell to approximately 25% of the rate at 5 μg/ml. A similar dependence of phosphorylation rate on calf thymus DNA concentration was observed using SV40 TAg or the human Oct-1 POU domain as substrates.

The target of experiment [2] is T1, DNA-PK. Description: Phosphorylation of recombinant protein substrates by purified DNA-PK (SDS-PAGE, phosphorimage). The class given is biochemical. As to the method: The recombinant protein substrates, a total of six, (at approximately 0.1 mg/ml final concentration) were separately mixed with hsp90 in a phosphorylation reaction with purified DNA-PK (0.6 pg, 0.02 units/assay) without (−) or with (+) 5 μg/ml calf thymus DNA, in the presence of ^32P-ATP for 30 minutes at 30° C. as described by Lees-Miller, et al., Mol. Cell. Biol., 12:5041-5049 (1992). The phosphorylation reactions were stopped with SDS sample buffer and analyzed with SDS-PAGE. The gel was fixed, stained with Coomassie brilliant blue, dried and developed by autoradiographic procedures. The results of which can be seen in FIG. 9.

2 molecules from patent publication US6803203B1, “DNA-PK assay” (Brookhaven Science Associates, priority 1993, dated 2004) can be followed below.

B1: recombinant wild-type mouse p53: wild-type mouse p53 purified from Sf9 insect cells infected with recombinant virus NPVp53 (protein, UniProt P02340 1-390, looked up)
Cellular tumor antigen p53: MTAMEESQSDISLELPLSQETFSGLWKLLPPEDILPSPHCMDDLLLPQDVEEFFEGPSEALRVSGAPAAQDPVTETPGPVAPAPATPWPLSSFVPSQKTYQGNYGFHLGFLQSGTAKSVMCTYSPPLNKLFCQLAKTCPVQLWVSATPPAGSRVRAMAIYKKSQHMTEVVRRCPHHERCSDGDGLAPPQHLIRVEGNLYPEYLEDRQTFRHSVVVPYEPPEAGSEYTTIHYKYMCNSSCMGGMNRRPILTIITLEDSSGNLLGRDSFEVRVCACPGRDRRTEEENFRKKEVLCPELPPGSAKRALPTCTSASPPQKKKPLDGEYFTLKIRGRKRFEMFRELNEALELKDAHATEESGDSRAHSSYLKTKKGQSTSRHKKTMVKKVGPDSD
Consider B1, for which the “rate of p53 phosphorylation relative to the rate at 5 μg/ml DNA” value in experiment [1] is “approximately 25%”.

B2: substrate 1: wild-type recombinant substrate: Ser Gln Glu DNA-PK site and wild-type Oct-1 POU domain; product of p349SUB1 (protein)
chain: MPEESQETFEDLWKLLPGHHHHHHGMSGGMEEPSDLEELEQFAKTFKQRRIKLGFTQGDVGLAMGKLYGNDFSQTTISRFEALNLSFKNMCKLKPLLEKWLNDAENLSSDSSLSSPSALNSPGIEGLSRRRKKRTSIETNIRVALEKSFLENQKPTSEEITMIADQLNMEKEVIRVWFCNRRQKEKRINPQPELAPEDPED
modifications: POUSUB1 artificial DNA-PK substrate
notes: wild-type recombinant substrate: Ser Gln Glu DNA-PK site and wild-type Oct-1 POU domain; product of p349SUB1
Consider B2, for which the “increase in phosphate incorporation by addition of double stranded DNA” value in experiment [2] (5 μg/ml calf thymus DNA compared to no addition of DNA, 30 minutes at 30° C.) is given as 20 fold. Also, the “phosphorylation by purified DNA-PK (in words)” value in experiment [2] (DNA-dependent, compared with hsp90) is given as “equal to, if not better than, hsp90”.
